Experimental data reported in patent US8557777B2, “Methods for treating cancer using prostate specific antigen and tumor endothelial marker peptides” (The Board of Trustees of the University of Illinois, priority 2010, dated 2013).
Ends that are not written are not given here.

Legend:
HLA-A201 = molecular target: T1, HLA-A201 (Homo sapiens, UniProt P04439, D140Y/D185E/D98H/E176V/E277Q/G131W/G231S/I119V/I121R/I166T/I218V/L300P/L318F/N151K/N90K/P208A/P217A/Q86G/Q94H/R138H/R169H/T345S); assay: Peptide-binding assay on T2 cells (PSA peptide)
T1 construct: stabilize the expression of HLA-A2 on antigen-processing defective T2 cell line; host or cells: T2 cells
Description: The antigen-processing defective cell line, T2, was used to assay peptide binding to HLA-A201 as previously detailed [Xue et al., Prostate 30(2): 73-8 (1997)]. Briefly, T2 cells (5×10^5/well) were pulsed with PSA-peptide or DMSO at the designated concentration and cultured in 24-well plates overnight (18 hours) at 37° C. in 5% CO2 atmosphere. HLA-A2 expression was measured by flow cytometry using FITC conjugated anti HLA-A2 antibody (clone BB7.2) from BD Biosciences (San Diego, Calif.).

HLA-A2 = HLA-A2 (Homo sapiens, UniProt P04439, D140Y/D185E/D98H/E176V/E277Q/G131W/G231S/I119V/I121R/I166T/I218V/L300P/L318F/N151K/N90K/P208A/P217A/Q86G/Q94H/R138H/R169H/T345S); assay: T2 binding assay: stabilization of HLA-A2 expression by TEM8 peptides; conditions: for expression of HLA-A2 on T2 cells over baseline levels: baseline T2 + DMSO, TEM8 207-215 10 ug/ml, TEM8 298-306 40 ug/ml (FIG. 9)
patients with CaP [1] = conditions: in vivo
patients with CaP [2] = assay: Toxicity graded by NIH Common Terminology Criteria for Adverse Events v3.0
[3] = format: physicochemical
Description: Identified candidate peptides were synthesized (Protein Laboratory, Research Resources Facility, University of Illinois, Chicago) at greater than 95% purity, dissolved in dimethylsulphoxide (DMSO) at a concentration of 5 mg/ml and stored at −20° C. Peptides were tested for their ability to stabilize the expression of HLA-A2 on antigen-processing defective T2 cell line (ATCC, Manassas, Va.) as previously described [Xue et al., Prostate 1997; 30:73-78]. Briefly, 5×10^5 T2 cells in RPMI 1640 medium containing 10% fetal bovine serum (BioWhitaker, Walkersville, Md.) were incubated with varying amounts (1 to 80 ug/ml) of TEM8 peptide or control HIV-RT476-484 peptide, and cultured in 24 well plates for 18 hours at 37° C. HLA-A2 expression was visualized by direct staining with FITC conjugated MA2.1 antibody or an isotype control (BD Biosciences, San Diego, Calif.) followed by analysis on a FC500 flow cytometer (Beckman Coulter, Miami, Fla.).
TEM8 is known to share 60% sequence homology within the extracellular integrin-like-I domain region with another protein called capillary morphogenesis protein 2 (CMG2) that is widely expressed in normal tissues [Chen et al., J Biol. Chem. 2007 Mar. 30; 282(13):9834-45. Epub 2007 Jan 24]. […] Three remaining peptides were tested in T2 binding assays. […]

| T2 binding (HLA-A2) | Compound | expression of HLA-A2 on T2 cells over baseline levels (HLA-A2) | further results |
| --- | --- | --- | --- |
|  | CALPERPSLYTKVVHYRKWIK [PSA210-230 peptide, long chain synthetic peptide corresponding to PSA residues 210-230] |  | HLA-A201 binding capacity (HLA-A201): binds with high affinity in a concentration dependent fashion |
| No | TLNEKPFSV [TEM8 266-274, 9-mer HLA-A0201 peptide of Tumor Endothelial Marker-8] | did not |  |
|  | CC(C)C[C@H](NC(=O)[C@H](CC(=O)O)NC(=O)[C@@H](NC(=O)[C@H](CS)NC(=O)[C@H](CCC(N)=O)NC(=O)[C@H](CC(C)C)NC(=O)[C@@H](N)CCCCN)C(C)C)C(=O)N[C@@H](Cc1c[nH]cn1)C(=O)N[C@H](C(=O)O)C(C)C [PSA146-154 peptide] |  | treatment related grade 3/4 toxicities (patients with CaP [1]): no treatment related grade 3/4 toxicities; late safety (patients with CaP [2]; after six to eight years of monitoring): no late safety concerns or deleterious sequelae; reactions at the site of injection (patients with CaP [2]; all patients under protocol-1 (intradermal peptide + GM-CSF)): Mild pain, itching, and erythema with or without induration |
|  | FLLLALALL [TEM8 331-339] |  | solubility in DMSO [3]: insoluble in DMSO |
| Yes | SMNDGLSFI [TEM8 298-306, 9-mer HLA-A0201 peptide of Tumor Endothelial Marker-8] | showed enhanced expression of HLA-A2 over baseline levels |  |
| Yes | ALQGIIHSI [TEM8 207-215, 9-mer HLA-A0201 peptide of Tumor Endothelial Marker-8] | showed enhanced expression of HLA-A2 over baseline levels | binding affinity in comparison to HIV-RT 476-484 (HLA-A2; control HLA-0201 binding peptide): greater binding affinity |
